Laboratory results reported in the RNAGym collection of RNA variant scans (doi:10.1073/pnas.2313332121).

B1: TPR t1 (parent)
chain: GACCAAUCUGCCCUCAGAGCUCGAGAACAUCUUCGGAUGCAGAGGAGGCAGGCUUCGGUGGCGCGAUAGCGCCAACGUCCUCAACCUCCAAUGCAUCCCACCACAUGAUGAUGCCUGAAGAGCCUUGGUUUUUUG

Variants of: B1
Assay: polymerase ribozyme fitness, log enrichment relative to wild type (log ratio); higher = more active; in vitro selection for triplet polymerase activity
Outline: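 Mutant libraries of both subunits of a heterodimeric triplet polymerase ribozyme were PCR-built, transcribed, and selected once in triplicate, with frozen incubation at −7 °C and capture of gel-excised extended constructs on streptavidin beads before RT-PCR. Illumina sequencing of input and output libraries was filtered to genotypes with ≥10 input reads and ≥1 read per output. Fitness is the logarithm of genotype enrichment over wild-type enrichment, using inverse-variance-weighted replicate averages. The logarithm is base 2.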

| Variant | polymerase ribozyme fitness (log ratio) |
| --- | --- |
| GACCAAUCUGCCCUCAGAGCUCGAGAAAAUCUUCGGAUGCAGAGGAGGCAGGCUUCGGUGGCGGGAUAGCGCCAACGUCCUCAACCUCCAAUGCAUCCCACCACAUGAUGUUGCGUGAAGAGCCUUGGUUUUUUG [C28A C64G A111U C115G] | -6.15 |
| GACCAAUCUGCCCUCAGAGCUCGAGAUCAUCUUCGGAUGCAGAGGAGGCAGGCUUCGGUGGCUCGAUAGCGCCAACGUCCUCAACCUCCAAUGCAUCCCACCACAUGAUGAUGCCUGAAGAGCCUUGGUUUUUUG [A27U G63U] | -5.66 |
| GACCAAUCUGCCCUCAGAGCUCGAGAUCAUCUUCGGAUGCAGAGGAGGCAGGCUUCGGUGGCACGAUAGCGCCAACGUCCUCAACCUCCAAUGCAUCCCACCACAUGAUGAUGCCUGAAGAGCCUUGGUUUUUUG [A27U G63A] | -4.36 |
| GACCAAUCUGCCCUCAGAGCUCGAGAUCAUCUUCGGAUGCAGAGGAGGCAGGCUUCGGUGGCCCGAUAGCGCCAACGUCCUCAACCUCCAAUGCAUCCCACCACAUGAUGAUGCCUGAAGAGCCUUGGUUUUUUG [A27U G63C] | -3.59 |
| GACCAAUCUGCCCUCAGAGCUCGAGAUCAUCUUCGGAUGCAGAGGAGGCAGGCUUCGGUGGCGCGAUAGCGCCAACGUCCUCAACCUCCAAUGCAUCCCACCACAUGAUGAUGCCUGAAGAGCCUUGGUUUUCUG [A27U U133C] | -2.05 |
| GACCAAUCUGCCCUCAGAGCUCGAGAAAAUCUUCGGAUGCAGAGGAGGCAGGCUUCGGUGGCGCGAUAGCGCCCACGUCCUCAACCUCCAAUGCAUCCCACCACAUGAUGAUGCCUUAAGAGCCUUGGUUUUUUG [C28A A74C G117U] | -7.34 |
| GACCAAUCUGCCCUCAGAGCUCGAGAAAAUCUUCGGAUGCAGAGGAGGUAGGCUUCGGUGGCGCGAUAGCGCCAACGUCCUCAACCUCCAAUGCAUCCCACCACAUGAUGAUGCCUGAAGAGCCUUGGUUUUUUG [C28A C49U] | -4.87 |
| GACCAAUCUGCCCUCAGAGCUCGAGAAAAUCUUCGGAUGCAGAGGAGGCAGGCUUCGGUGGCGCGAUAGCGCAAACGUCCUCAACCUCCAAUGAAUCCCACCACAUGAUGAUGCCUGAUGAGCCUUGGUUUUUUG [C28A C73A C94A A119U] | -5.2 |
| GACCAAUCUGCCCUCAGAGCUCGAGAAAAUCUUCGGAUGCAGAGGAGGCAGGCUUCGGUGGCGCGAUAGCGCCAGCGUCCUCAACGUCCAAUGCAUCCCACCACAUGAUGAUGCCUGAAGAGUCUUGGUUUUUUG [C28A A75G C86G C123U] | -5.57 |
| GACCAAUCUGCCCUCAGAGCUCGAGAUCAUCUUCGGAUGCAGAGGAGGCAGGCUUCGGUGGCGCGAUAGCCCCAACGUCCUCAACCUCCAAUGCAUCCCACCACAUGAUGAUGCCUGAAGAGCCUUGGUUUUUUG [A27U G71C] | -4.45 |
| GACCAAUCUGCCCUCAGAGCUCGAGAUCAUCUUCGGAUGCAGAGGAGGCAGGCUUCGGUGGCGCGAUAGCGCCAACGUCCUCAACCUCCAAUGCAUCCCACCACAUGAUGAUGCCGGAAGAGCCUUGGUUUUUUG [A27U U116G] | -5.63 |
| GACCAAUCUGCCCUCAGAGCUCGAGAUCAUCUUCGGAUGCAGAGGAGGCAGGCUGAGGUGGCGCGAUACCGCCAACGUCCUCAACCUCCAAUGCAUCCCACCACAUGAUGAUGCCUGAAGAGCCUUGGUUUUUUG [A27U U55G C56A G69C] | -6.66 |
| GACCAAUCUGCCCUCAGAGCUCGAGAAAAUCUUCGGAUGCAGAGGAGGCAGGCUUCGGUGGCGCGAUAGAGCCAACGUCCUCAACCUCCAAUGCAUCCCACCACAUGAUGAUGCCUGAAGAGCCUUGGUUUUUUG [C28A C70A] | -4.81 |
| GACCAAUCUGCCCUCAGAGCUCGAGAAAAUCUUCGGAUGCAGAGGAGGCAGGCUUCGGUGGCGCGAUGGCGCCUACGUCCUCAACCUCCAAUACAUCCCACCACAUGAUGAUGGCUGAAGAGCCUUGGUUUUUUG [C28A A68G A74U G93A C114G] | -7.51 |
| GACCAAUCUGCCCUCAGAGCUCGAGAUCAUCUUCGGAUGCAGAGGAGGCAGGCGUCGGUGGCGCGAUAGCGCCAACGUCCUCAACCUCCAAUGCAUCCCACCACAUGAUGAUGCCUGAAGAGUCUUGGUUUUUUG [A27U U54G C123U] | -1.23 |
| GACCAAUCUGCCCUCAGAGCUCGAGAAAAUCUUCGGAUGCAGAGGAGGCCGGCUUCGGUGGCGCGAUAGCGCAAACGUCCUCAACCUCCAAUGCAUCCCACCACAUGAUGAUACCUGAAGAGCCUUGGUUUUUUG [C28A A50C C73A G113A] | -4.23 |
| GACCAAUCUGCCCUCAGAGCUCGAGAUCAUCUUCGGAUGCAGAGGAGGCAGGCUUCGGAGGCGCGAUAGCGCCAACGUCCUCAACCUCCAAUGCAUCCCACCACAUGAUGAUGCCUGAAGAGCCUUGGUUUUUUG [A27U U59A] | -3.1 |
| GACCAAUCUGCCCUCAGAGCUCGAGAUCAUCUUCGGAUGCAGAGGAGGCAGGCUUCGGUGGCGCGAUAGCGCCAACGUCCUCAACCUCCAAUGCAUCCCACCACAUGAUGACGCCUGAAGAGCCUUGGUUUUUUG [A27U U112C] | -1.46 |
| GACCAAUCUGCCCUCAGAGCUCGAGAUCAUCUUCGGAUGCAGAGGAGGCAGGCUUCGGUGGCACGAUAUCGCCAACGUCCUCAACCUCCAAUGCAUCCCACCACAUGAUGAUGCCUGAAGAGCCUUGGUUCUUUG [A27U G63A G69U U131C] | -4.16 |
| GACCAAUCUGCCCUCAGAGCUCGAGAUCAUCUUCGGAUGCAGAGGAGGCAGGCUUCGGUGGCGCGAUAUCGCCAACGUCCUCAACCUCCAAUGCAUCCCAACACAUGAUGAUGCCUGAAGAGCCUUGGUUUUUUG [A27U G69U C101A] | -2.96 |
| GACCAAUCUGCCCUCAGAGCUCGAGAAAAUCUUCGGAUGCAGAGGAGGCAGGCUUCGGUGGCGCGAUAGCGCCCACGUCCUCAACCUCCAAUGCAUCCCACCACAUGAUGAUGCCUGAAGAGCCUUGGUUUUUUG [C28A A74C] | -4.96 |

| Variant | polymerase ribozyme fitness (log ratio) |
| --- | --- |
| GACCAAUCUGCCCUCAGAGCUCGAGAUCAUCUUCGGAUGCAGAGGAGGCAGGCUUCGGUGGCGCGAUAGCGCCAACGUCCUCAACCUCCAAUGCAUCCCACCACAUGAUGAUGCCUGAAGAGCCUUGGUUCUUUG [A27U U131C] | -2.91 |
| GACCAAUCUGCCCUCAGAGCUCGAGAUCAUCUUCGGAUGCAGAGGAGGCAGGCUUCGGUGACGCGAUAGCGCCAACGUCCUCAACCGCCAAUGCAUCCCACCACAUGAUGAUGCCUGAAGAGCCUUGGUUUUUUG [A27U G61A U87G] | -2.42 |
| GACCAAUCUGCCCUCAGAGCUCGAGAUCAUCUUCGGAUGCAGAGGAGGCAGGCUUCGGUGGCGCGAUAGCGCCAACGUCCUCAACCUCCAAUGCAACCCACCACAUGAUGAUGCCUGAAGAGCCUUGGUUUUUUG [A27U U96A] | -4.07 |
| GACCAAUCUGCCCUCAGAGCUCGAGAUCAUCUUCGGAUGCAGAGGAGGCAGACUUCGGUGGCGCGAUAGCGCAAACGUCCUCAACCUCCACUGCAUCCCACCACAUGAUGAAGCCUGAAGAGCCUUGGUUUUUUG [A27U G52A C73A A91C U112A] | -4.52 |
| GACCAAUCUGCCCUCAGAGCUCGAGAAAAUCUUCGGAUGCAGAGGAGGUAGGCUUCGGUGGCGCGAUAUCGCCAACGUCCUCAACCUCCAAUGCAUCCCACCACAUGAUGAUACCUGAAGAGCCUUGGUUUUUUG [C28A C49U G69U G113A] | -1.42 |
| GACCAAUCUGCCCUCAGAGCUCGAGAUCAUCUUCGGAUGCAGAGGAGGCAGGCAUCGGUGGCGCGAUAGCGCCAACGUCCUCAACCUCCAAUGCAUCCCACCACAUGAUGAUGCAUGAAGAGCCUUGGUUUUUUG [A27U U54A C115A] | -3.07 |
| GACCAAUCUGCCCUCAGAGCUCGAGAUCAUCUUCGGAUGCAGAGGAGGCAGCCUUCGGUGGCGCGAUAGCGCCAACGUCCUCAACCUUCAAUGCAUCCCACCACAUGAUGAUGCCUGAAGAGCCUUGGUUUUUUG [A27U G52C C88U] | -3.31 |
| GACCAAUCUGCCCUCAGAGCUCGAGAUCACCUUCGGAUGCAGAGGAGGCAGGCUUCGGUGGCGCGAUAGCGCCAAAGUCCUCAACCUCCAAUGCAUCCGACAACUUGAUGAUGCUUGAAGAGCCUUGGUUUUUUG [A27U U30C C76A C99G C102A A105U C115U] | -6.7 |
| GACCAAUCUGCCCUCAGAGCUCGAGAUCAUCUUCGGAUGCAGAGGAGGCAGGCUUCGGUGGCGCGAUAGCGCCAACGUCCUCAACCUCCAAUGCAUCCCACCACAUGAUGAUGCCUGAAAAGCCUUGGUUUUUUG [A27U G120A] | -1.65 |
| GACCAAUCUGCCCUCAGAGCUCGAGAUCAUCUUCGGAUGCAGAGGAGGCAGGCUUCGGUGGCGCGAUAGCGCCAACGUCCUCAACCUCCAAUGCAUCCCACCACAUGAUGAUGCCUGAAUAGCCUUGGUUUUUUG [A27U G120U] | -2.65 |
| GACCAAUCUGCCCUCAGAGCUCGAGAUCAUCUUCGGAUGCAGAGGAGGCAGGCUUCGGUGCCGCGAUAGCGCCAACGUCCUCAACCUCCAAUGCAUUCCACCACAUGAUGAUGCCUGAAGAGCCUUGGUUAUUUG [A27U G61C C97U U131A] | -4.99 |
| GACCAAUCUGCCCUCAGAGCUCGAGAUCAUCUUCGGAUGCAGAGGAGGCAGGCUUCGGUGGCGCGAUAGCGCCAACGUCCUCAACCUCCAAUGCAUCCCACCACAUGAUGAUGCCUUAAGAGCCUUGGUUUUUUG [A27U G117U] | -4.76 |
| GACCAAUCUGCCCUCAGAGCUCGAGAAAAUCUUCGGAUGCAGAGGAGGCAGGCUUCGGUGGCGCGAUAGCGCAAACGUCCUCAACCUCCAAUGCAUCCCACCACAUGAUGAUGCCUGAAGAGCGUUGGUUUUUUG [C28A C73A C124G] | -3.22 |
| GACCAAUCUGCCCUCAGAGCUCGAGAAAAUCUUCGGAUGCAGGGGAGGCAUGCUUCGGUGGCGCGAUAGCGCCAACGUCCUCAACCUCCGAUGCAUCCCACCACAUGAUAAUGCCUGAAGAGCCUUGGUUUUUUG [C28A A43G G51U A90G G110A] | -4.93 |
| GACCAAUCUGCCCUCAGAGCUCGAGAUCAUCUUCGGAUGCAGAGGAGGCAGGCUUCGGUGGCGCGAUAGCGCCAACGUCCUCAACCGCCAAUGCAUCCCACCACAUGAUGAUGCCUGAAGAACCUUGGUUUUUUG [A27U U87G G122A] | -3.02 |
| GACCAAUCUGCCCUCAGAGCUCGAGAUCAUCUUCGGAUGCAGAGGAGGCAGGCUUCUGUGGCGCGAUAGCGCGAACGCCCUCAACCUCCAAUGCAACCCACCACAUGAUGUUGCCUGAAGAGCCUUGGUUUUUUG [A27U G57U C73G U78C U96A A111U] | -5.99 |
| GACCAAUCUGCCCUCAGAGCUCGAGAUCAUCUUCGGAUGCAGAGGAGGCAGGCGUCGGUGGCGCGAUAGCGCCAACGUCCUCAACCUCCAAUGCAUCCCACCACAUGAUGAUGCCAGAAGAGCAUUAGUUUUUUG [A27U U54G U116A C124A G127A] | -3.59 |
| GACCAAUCUGCCCUCAGAGCUCGAGAUCAUCUUCGGAUGCAGAGGAGGCAGGCUUCGGUAGUGCGAUAGCGCCAACGUCCUCAACCUCCAAUGCAUCCCACCACAUGAUGAUGCCUGAACAGCCUUGGUUUUUUG [A27U G60A C62U G120C] | -2.69 |
| GACCAAUCUGCCCUCAGAGCUCGAGAAAAUCUUCGGAUGCAGAGGAGGCAGGCUUCGGUGGCGCGAUAGCGUCAACGUCCUCAACCUCCAAUGCAUCCCCCCACAUGAUGAUGCCUGAAAAGCCUUGGUUUUUUG [C28A C72U A100C G120A] | -4.36 |
| GACCAAUCUGCCCUCAGAGCUCGAGAUCAUCUUCGGAUGCAGAGGAGGCAGGCUUCGGUCGCGCGAUAGCGCCAACGUCCUCAACCUCCAAUGCAUCCCACCACAUGAUGAUGCCUGAAGAGCCUUGGUUUUUUG [A27U G60C] | -3.62 |
| GACCAAUCUGCCCUCAGAGCUCGAGAUCAUCUUCGGAUGCAGAGGAGGCAGGCCUCGGUGUCGCGAUAGCGCCAACGUCCUCAACCUCCAAUGCAUCCCACCACAUCACCAUGCCUGAAGAGCCUUGGUUUUUUG [A27U U54C G61U G107C U109C G110C] | -7.69 |
